One may read the Kd as the free concentration of one partner at which half of the binding sites on the other are occupied at equilibrium, for simple one-to-one binding. A high value points to lower affinity.

For this test, the target named is HER2 (UniProt P04626). In words: SPR. A general note: SPR reads the build-up and loss of mass on a sensor chip optically.

As for “4D5 Fab modified to contain Q39E in VH, Q38K in VL, S183K in the CH1, and V133E in the CL”, the Kd amounted to 750 pM.
